Common to all, as to assay: SPR
In general terms: Surface plasmon resonance follows binding to a sensor surface in real time, without labels.

Data set [1] concerns ParRC(pCW3) (Clostridium perfringens plasmid pCW3).
Data set [2] concerns ParRD(pJIR3118) (Clostridium perfringens plasmid pJIR3118 (CN1020 gDNA)).
The test system of data set [3] is ParRB(pJIR4165) (Clostridium perfringens plasmid pJIR4165).

As to “AAAAAACATCACAATTTTACATAATAGAAA / TTTCTATTATGTAAAATTGTGATGTTTTTTCCTACCCTACGTCCTCCTGC [parCC C16]”, the binding signal in data set [1] is 311 RU.

As to “AAAATGAAAAAAACATCACAATTTTACGGA / TCCGTAAAATTGTGATGTTTTTTTCATTTTCCTACCCTACGTCCTCCTGC [parCC C5]”, the binding signal in data set [1] amounted to 249 RU.

“AAACATCACAATTTTACGGAAAATGCTTGA / TCAAGCATTTTCCGTAAAATTGTGATGTTTCCTACCCTACGTCCTCCTGC [parCC C6]” yielded a binding signal in data set [1] of 282 RU.

In data set [2], “AAATAATATCAAATAATATTATTTAATGTC / GACATTAAATAATATTATTTGATATTATTTCCTACCCTACGTCCTCCTGC [parCD D4]” yielded a binding signal of 232 RU.

As to “AATATAAAAACATAAACATCACAATTTTAC / GTAAAATTGTGATGTTTATGTTTTTATATTCCTACCCTACGTCCTCCTGC [parCC C11]”, the binding signal in data set [1] is 154 RU.

On to “AATTAAAAACATCACAATTTTACGTAATGA / TCATTACGTAAAATTGTGATGTTTTTAATTCCTACCCTACGTCCTCCTGC [parCC C1]”, for which, in data set [1], the binding signal was found to be 256 RU.

In data set [1], “ACAATTTTACGTAATTTAGATTTTGCAAGT / ACTTGCAAAATCTAAATTACGTAAAATTGTCCTACCCTACGTCCTCCTGC [parCC C13]” returned a binding signal of 48 RU.

Consider “ACATTAAAAGATACTAATTAATATTATTTA / TAAATAATATTAATTAGTATCTTTTAATGTCCTACCCTACGTCCTCCTGC [parCD D12]”, for which the binding signal in data set [2] worked out at 250 RU.

“AGGTATAAACTCAGTATATACATGATTGAA / TTCAATCATGTATATACTGAGTTTATACCTCCTACCCTACGTCCTCCTGC [parCB B17]” had a binding signal in data set [3] of 368 RU.

In data set [2], “AGGTTATTTAATGTTAAATGATATTAAATA / TATTTAATATCATTTAACATTAAATAACCTCCTACCCTACGTCCTCCTGC [parCD D9]” registered a binding signal of 213 RU.

“ATACTAATTAATATTATTTAATTATTGACT / AGTCAATAATTAAATAATATTAATTAGTATCCTACCCTACGTCCTCCTGC [parCD D13]” returned a binding signal in data set [2] of 187 RU.

Sequence “ATATTAAATAACATTAAAAGATACTAATTA / TAATTAGTATCTTTTAATGTTATTTAATATCCTACCCTACGTCCTCCTGC [parCD D11]” showed a binding signal in data set [2] of 236 RU.

Take “ATCACAATTTTACGTAATGACAGTTTGTTG / CAACAAACTGTCATTACGTAAAATTGTGATCCTACCCTACGTCCTCCTGC [parCC C2]”: the binding signal in data set [1] was determined as 54 RU.

In data set [2], “ATGTTAAATGATATTAAATAACATTAAAAG / CTTTTAATGTTATTTAATATCATTTAACATCCTACCCTACGTCCTCCTGC [parCD D10]” displayed a binding signal of 270 RU.

Regarding “ATTTTACGGAAAATGCTTGATTTAGATTGA / TCAATCTAAATCAAGCATTTTCCGTAAAATCCTACCCTACGTCCTCCTGC [parCC C7]”, the binding signal in data set [1] amounted to 9 RU.

In data set [1], “CATAAACATCACAATTTTACGTAATTTAGA / TCTAAATTACGTAAAATTGTGATGTTTATGCCTACCCTACGTCCTCCTGC [parCC C12]” showed a binding signal of 348 RU.

For the sequence “GAATAATATTAAATAATATCAAATAATATT / AATATTATTTGATATTATTTAATATTATTCCCTACCCTACGTCCTCCTGC [parCD D3]”, in data set [2], the binding signal is 225 RU.

The sequence “GTAATTTAGATTTTGCAAGTAAAAAACATC / GATGTTTTTTACTTGCAAAATCTAAATTACCCTACCCTACGTCCTCCTGC [parCC C14]” displayed a binding signal in data set [1] of 42 RU.

Sequence “TAGTATATATCTAGTATATACTAAATTTAT / ATAAATTTAGTATATACTAGATATATACTACCTACCCTACGTCCTCCTGC [parCB B21]” returned a binding signal in data set [3] of 377 RU.

Regarding “TCACTATATGTATATACTGAATATATACAT / ATGTATATATTCAGTATATACATATAGTGACCTACCCTACGTCCTCCTGC [parCB B2]”, the binding signal in data set [3] turned out to be 383 RU.

Turning to “TTTATTAATTTCACTATATGTATATACTGA / TCAGTATATACATATAGTGAAATTAATAAACCTACCCTACGTCCTCCTGC [parCB B1]”, the binding signal in data set [1] was -2.8 RU; in data set [2], 1.1 RU; in data set [3], 58 RU.

On to “TTTTGCAAGTAAAAAACATCACAATTTTAC / GTAAAATTGTGATGTTTTTTACTTGCAAAACCTACCCTACGTCCTCCTGC [parCC C15]”, for which the binding signal in data set [1] stood at 217 RU.

(Values after article PMC9426499.)
